Measured values from PMC4600444.

Target: Xis2d protein of CTnDOT (Bacteroides spp. (conjugative transposon CTnDOT))
Assay: SEC

- stoichiometry N: 2
Substance: Xis2d protein of CTnDOT (natural protein)
